The target in test [1] is T1, recombinant canine CTLA-4 extracellular domain protein (canine, UniProt Q9XSI1 36-161, biotin on the Avi tag (BirA ligase) in the ELISA, panning and interaction assays).
T1 construct: Cloned into pFUSE containing an HA tag, made in 293T cells; The SPR analyte is called soluble cCTLA-4 ECD, and biotinylation is not mentioned there; also called cCTLA-4; cCTLA-4 ECD
T1 chain: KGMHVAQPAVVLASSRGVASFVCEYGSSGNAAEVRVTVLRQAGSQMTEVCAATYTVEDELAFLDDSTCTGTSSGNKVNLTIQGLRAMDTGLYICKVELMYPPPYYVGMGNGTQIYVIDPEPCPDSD
Kind of test: ELISA; the axis is the amount of CTLA4 per well, not the mAb concentration. (In general: An ELISA detects its analyte on a solid surface through an enzyme-linked reagent.)

Test [2] has as its target T1, recombinant canine CTLA-4 extracellular …. Kind of test: ELISA; the axis is the amount of coated CTLA4, not the mAb concentration.
Test [3] has the same target. The test can be described thus: SPR, mAb captured on the chip, cCTLA-4 ECD as analyte. A general note: Surface plasmon resonance follows binding to a sensor surface in real time, without labels.
Test [4] has the same target. Kind of test: SPR, full-length canine mAb and cCTLA-4.
For test [5] the target is unchanged. Kind of test: scFv expression extract ELISA on cCTLA-4 (data not shown).
The target is the same in test [6]. Kind of test: ELISA; the axis is the amount of coated cCTLA-4, scFv fixed at 0.25 ug/ml.
The target is the same in test [7]. The test can be described thus: SPR, mAb captured on the chip, cCTLA-4 ECD as analyte.
Test [8] addresses T2, human complement C1q (in normal human complement serum) (human, UniProt P02745 23-245; P02746 28-253; P02747 29-245).
T2 construct: also called human serum complement
Kind of test: complement fixation ELISA: antibody titrated on captured cCTLA-4, C1q of human serum detected.

Test [9] addresses T2, human complement C1q (in normal human …). Kind of test: complement fixation ELISA: antibody on captured cCTLA-4, human serum complement, anti-human C1q HRP.

Positions count from the first letter of the chain named. Read-outs that look alike come from different tables or passages of the source.

This is an account of results in US20240109967A1 (University of Pennsylvania, published 2024).

T2 sequence (P02745 23-245 limits assumed, chain 1 of 3): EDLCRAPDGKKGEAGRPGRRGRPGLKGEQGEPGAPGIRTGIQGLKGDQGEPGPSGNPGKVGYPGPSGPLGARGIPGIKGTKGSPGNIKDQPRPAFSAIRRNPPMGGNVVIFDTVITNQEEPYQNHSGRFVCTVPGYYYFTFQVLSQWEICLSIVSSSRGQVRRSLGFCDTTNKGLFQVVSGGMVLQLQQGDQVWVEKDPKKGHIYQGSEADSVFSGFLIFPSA
T2 sequence (P02746 28-253 limits assumed, chain 2 of 3): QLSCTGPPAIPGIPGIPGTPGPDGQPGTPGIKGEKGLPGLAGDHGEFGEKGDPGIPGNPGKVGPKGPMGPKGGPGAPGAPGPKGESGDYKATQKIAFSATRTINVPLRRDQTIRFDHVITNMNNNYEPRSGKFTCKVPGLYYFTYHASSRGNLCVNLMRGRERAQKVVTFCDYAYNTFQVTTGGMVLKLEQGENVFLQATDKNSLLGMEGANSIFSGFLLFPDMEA
T2 sequence (P02747 29-245 limits assumed, chain 3 of 3): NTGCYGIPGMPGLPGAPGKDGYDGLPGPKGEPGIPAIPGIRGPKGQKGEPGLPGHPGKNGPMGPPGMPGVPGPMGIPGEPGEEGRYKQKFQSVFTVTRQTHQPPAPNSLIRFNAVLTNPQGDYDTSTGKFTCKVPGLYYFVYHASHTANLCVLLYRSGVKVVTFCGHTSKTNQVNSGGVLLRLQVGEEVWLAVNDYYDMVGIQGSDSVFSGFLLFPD

B1: clone A1 full-length canine IgG1 (IgGA) mAb (antibody, V domains shown)
VH: EVQLVESGGDLVKPAGSLRLSCVASGFSFSSYAMNWVRQAPGKGLQWIAGINSGGSSTSHIDAIKGRFTISRDNAKNTLYLQMNSLRAEDTAVYYCAISNWAYWGQGTLVTVSS
VL: QAVLNQPASVSGSLGQRVTISCTGSSSDIGKSYVAWYQQLPGTGPRTLINVDGNRASGVPDRFSVSRSGNTATLTISGLQAEDEADYHCSSWDWSLHTYVFGSGTQLTILG
notes: Produced only at low levels; also called A1 mAb
In the case of B1, in test [1], the “EC50 (read off the curve)” value is around 0.7 pmol/well CTLA4.

B2: D5 full-length canine IgG1 (IgGA) mAb (antibody)
heavy: EVQLVETGGDLMKPGGSLRLSCVASGFTFSSYSMSWVRQAPEKGLQLVAGINSGGSSTYYTDAVKGRFTISRDNAKNTLYLQMNSLRDEDTAVYYCVISNWSYWGQGTLVTVSSASTTAPSVFPLAPSCGSTSGSTVALACLVSGYFPEPVTVSWNSGSLTSGVHTFPSVLQSSGLYSLSSMVTVPSSRWPSETFTCNVVHPASNTKVDKPVFNECRCTDTPPCPVPEPLGGPSVLIFPPKPKDILRITRTPEVTCVVLDLGREDPEVQISWFVDGKEVHTAKTQSREQQFNGTYRVVSVLPIEHQDWLTGKEFKCRVNHIDLPSPIERTISKARGRAHKPSVYVLPPSPKELSSSDTVSVTCLIKDFYPPDIDVEWQSNGQQEPERKHRMTPPQLDEDGSYFLYSKLSVDKSRWQQGDPFTCAVMHETLQNHYTDLSLSHSPGKGGGSGGGSYPYDVPDYA
light: QPVLTQPPSVSAALGQRVTISCTGTATNVGGGYDVQWYQQFPGRPPKTIIYGNYNRPSGVPDRFSASTSGTTATLTISGLQAEDEANYYCSSWDNSLTAYVFGSGTQLTILGQPKASPSVTLFPPSSEELGANKATLVCLISDFYPSGVTVAWKADGSPITQGVETTKPSKQSNNKYAASSYLSLTPDKWKSHSSFSCLVTHEGSTVEKKVAPAECS
notes: The HA tag is placed on the heavy chain; also called D5 mAb; D5 antibody
What is called Kd is the free concentration of one partner at which half of the binding sites on the other are occupied at equilibrium, for simple one-to-one binding. By koff is commonly meant the first-order rate constant of dissociation. The kon is the second-order rate constant of association. As to B2, in test [2], the “EC50 (read off the curve)” value is ~0.2 pmol biotinylated CTLA4/well. Moreover, in test [3], the Kd is 1.5 nM, the off-rate constant (koff) is 0.00018 s⁻¹, the kon turned out to be 120000 M⁻¹ s⁻¹ and the t1/2 was 64 min. Also, in test [4], the dissociation constant Kd was 1.5 nM, the kon was found to be 120000 M⁻¹ s⁻¹ and the t1/2 was 64 min. Besides, the “EC50 (read off the curve)” value in test [1] was around 0.7 pmol/well CTLA4.

B3: B10 scFv (soluble, His and HA tagged) (scFv)
scFv: QAVLNQPASVSAALGQRVTISCNTNIGSPYDVQWYQQLPGKSPKTIIYGNSNRPSGVPVRFSGSKSGSTATLTIAGIQAEDEADYYCQSYDDNVDGYVFGSGTQLTVLGGGSSRSSSSGGGGSGGGGEVQLVETGGDLVKPGGSLRLSCVASGFTFSDYPMNWVRQAPEKGLQLVGGINSGGSATYYTDAVKGRFTISRDNAKNTVYLQMNSLRAEDTAMYYCATSNFQYWGQGTLVTVSSESPSPPNLTSGQAGQHHHHHHGAYPYDVPDYAS
notes: Canine scFv from panning round 3; also called clone B10
For the molecule B3, the “fold increase in binding over background” value in test [5] is above 20 fold. Also, the “EC50 (read off the curve)” value in [6] is around 0.6 pmol biotinylated cCTLA4.

B4: A1 scFv (soluble, His and HA tagged) (scFv)
scFv: QAVLNQPASVSGSLGQRVTISCTGSSSDIGKSYVAWYQQLPGTGPRTLINVDGNRASGVPDRFSVSRSGNTATLTISGLQAEDEADYHCSSWDWSLHTYVFGSGTQLTILGGGSSRSSSSGGGGSGGGGEVQLVESGGDLVKPAGSLRLSCVASGFSFSSYAMNWVRQAPGKGLQWIAGINSGGSSTSHIDAIKGRFTISRDNAKNTLYLQMNSLRAEDTAVYYCAISNWAYWGQGTLVTVSSESPSPPNLTSGQAGQHHHHHHGAYPYDVPDYAS
notes: Canine scFv from panning round 3; also called clone A1
Consider B4, for which, in [5], the “fold increase in binding over background” value is above 20 fold. Further, in test [6], the “EC50 (read off the curve)” value is around 0.3 pmol biotinylated cCTLA4.

B5: D5 scFv (soluble, His and HA tagged) (scFv)
scFv: QPVLTQPPSVSAALGQRVTISCTGTATNVGGGYDVQWYQQFPGRPPKTIIYGNYNRPSGVPDRFSASTSGTTATLTISGLQAEDEANYYCSSWDNSLTAYVFGSGTQLTILGGGSSRSSSSGGGGSGGGGEVQLVETGGDLMKPGGSLRLSCVASGFTFSSYSMSWVRQAPEKGLQLVAGINSGGSSTYYTDAVKGRFTISRDNAKNTLYLQMNSLRDEDTAVYYCVISNWSYWGQGTLVTVSSESPSPPNLTSGQAGQHHHHHHGAYPYDVPDYAS
notes: Canine scFv from panning round 4; also called clone D5
With B5, the “fold increase in binding over background” value in test [5] is above 20 fold. The “EC50 (read off the curve)” value in test [6] was around 0.4 pmol biotinylated cCTLA4.

B6: B10 full-length canine IgG1 (IgGA) mAb (antibody)
heavy: EVQLVETGGDLVKPGGSLRLSCVASGFTFSDYPMNWVRQAPEKGLQLVGGINSGGSATYYTDAVKGRFTISRDNAKNTVYLQMNSLRAEDTAMYYCATSNFQYWGQGTLVTVSSASTTAPSVFPLAPSCGSTSGSTVALACLVSGYFPEPVTVSWNSGSLTSGVHTFPSVLQSSGLYSLSSMVTVPSSRWPSETFTCNVVHPASNTKVDKPVFNECRCTDTPPCPVPEPLGGPSVLIFPPKPKDILRITRTPEVTCVVLDLGREDPEVQISWFVDGKEVHTAKTQSREQQFNGTYRVVSVLPIEHQDWLTGKEFKCRVNHIDLPSPIERTISKARGRAHKPSVYVLPPSPKELSSSDTVSVTCLIKDFYPPDIDVEWQSNGQQEPERKHRMTPPQLDEDGSYFLYSKLSVDKSRWQQGDPFTCAVMHETLQNHYTDLSLSHSPGKGGGSGGGSYPYDVPDYA
light: QAVLNQPASVSAALGQRVTISCNTNIGSPYDVQWYQQLPGKSPKTIIYGNSNRPSGVPVRFSGSKSGSTATLTIAGIQAEDEADYYCQSYDDNVDGYVFGSGTQLTVLGQPKASPSVTLFPPSSEELGANKATLVCLISDFYPSGVTVAWKADGSPITQGVETTKPSKQSNNKYAASSYLSLTPDKWKSHSSFSCLVTHEGSTVEKKVAPAECS
notes: The HA tag is placed on the heavy chain; also called B10 mAb; B10 antibody
On to B6, for which, in test [7], the equilibrium dissociation constant (Kd) is 1.5 nM, the koff was 0.00025 s⁻¹, the kon worked out at 160000 M⁻¹ s⁻¹ and the t1/2 is 46 min. The “EC50 (read off the curve)” value in test [2] is ~0.2 pmol biotinylated CTLA4/well. In test [4], the Kd amounted to 1.5 nM, the kon was 160000 M⁻¹ s⁻¹ and the t1/2 is 46 min. Besides, in [1], the “EC50 (read off the curve)” value was around 0.9 pmol/well CTLA4.

B7: A1mut2 full-length canine IgG3 (IgGC) mAb, HA-tagged (antibody)
heavy: EVQLVETGGDLVKPGGSLRLSCVASGFSFSSYAMNWVRQAPEKGLQLVGGINSGGSSTYYTDAVKGRFTISRDNAKNTVYLQMNSLRAEDTAVYYCAISNWAYWGQGTLVTVSSASTTAPSVFPLAPSCGSQSGSTVALACLVSGYIPEPVTVSWNSGSLTSGVHTFPSILQSSGLYSLSSMVTVPSSRWPSETFTCNVAHPATNTKVDKPVVKECECKCNCNNCPCPGCGLLGGPSVFIFPPKPKDILVTARTPTVTCVVVDLDPENPEVQISWFVDSKQVQTANTQPREEQSNGTYRVVSVLPIGHQDWLSGKQFKCKVNNKALPSPIEEIISKTPGQAHQPNVYVLPPSRDEMSKNTVTLTCLVKDFFPPEIDVEWQSNGQQEPESKYRMTPPQLDEDGSYFLYSKLSVDKSRWQRGDTFICAVMHEALHNHYTQKSLSHSPGKGGGSGGGSYPYDVPDYA
light: QAVLNQPASVSGSLGQRVTISCTGSSSDIGKSYVAWYQQLPGTGPRTLINVDGNRASGVPDRFSVSRSGNTATLTISGLQAEDEADYHCSSWDWSLHTYVFGSGTQLTILGQPKASPSVTLFPPSSEELGANKATLVCLISDFYPSGVTVAWKADGSPITQGVETTKPSKQSNNKYAASSYLSLTPDKWKSHSSFSCLVTHEGSTVEKKVAPAECS
notes: also called A1mut2 IgGC
With B7, the “EC50 (read off the curve)” value in [8] was around 0.5 ug/ml antibody.

B8: A1mut2 full-length canine IgG1 (IgGA) mAb (antibody)
heavy: B6 heavy with T28S, D31S, P33A, A57S, M93V, T98I, F101W, Q102A
light: B7 light
notes: The HA tag is said to be appended to the carboxyl termini of the full-length IgGs and is placed here on the heavy chain; also called A1mut2 mAb; A1mut2 antibody
B8: in test [9], the binding result was “no binding (tested: 10 ug/ml antibody)”.

B9: A1mut2 full-length canine IgG2 (IgGB) mAb, HA-tagged (antibody)
heavy: EVQLVETGGDLVKPGGSLRLSCVASGFSFSSYAMNWVRQAPEKGLQLVGGINSGGSSTYYTDAVKGRFTISRDNAKNTVYLQMNSLRAEDTAVYYCAISNWAYWGQGTLVTVSSASTTAPSVFPLAPSCGSTSGSTVALACLVSGYFPEPVTVSWNSGSLTSGVHTFPSVLQSSGLYSLSSMVTVPSSRWPSETFTCNVAHPASKTKVDKPVPKRENGRVPRPPDCPKCPAPEMLGGPSVFIFPPKPKDTLLIARTPEVTCVVVDLDPEDPEVQISWFVDGKQMQTAKTQPREEQFNGTYRVVSVLPIGHQDWLKGKQFTCKVNNKALPSPIERTISKARGQAHQPSVYVLPPSREELSKNTVSLTCLIKDFFPPDIDVEWQSNGQQEPESKYRTTPPQLDEDGSYFLYSKLSVDKSRWQRGDTFICAVMHEALHNHYTQESLSHSPGKGGGSGGGSYPYDVPDYA
light: B7 light
notes: also called A1mut2 IgGB
As to B9, in [8], the “EC50 (read off the curve)” value is around 0.6 ug/ml antibody.
